Experimental data published in paper PMC11861356.

Molecular target: IRF3 (UniProt Q14653)
Test: co-immunoprecipitation of tagged proteins, immunoblot
Details: reference: wild-type TBK1; sites Y174

binding against the reference: weaker
Substance: TBK1 (from UniProt Q9UHD2) TBK1 Y174F
